The supplement of paper PMC9170038

Tested on: MS2 coat protein
Experiment: apparent KD of MS2 coat protein; designed switch direction (-1 OFF switch, 1 ON switch): -1; higher = weaker reporter binding
Method in brief: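 Designed RNA switches sharing common flanks were transcribed on Illumina chips by stalled E. coli RNA polymerase. They were titrated with SNAP-549-labelled MS2 coat protein, from 0.7 or 1.5 nM doubling to 3 µM, in Tris-HCl pH 7.5 buffer with KCl, MgCl2, BSA, DTT, tRNA and Tween-20. Titrations ran without input, with 200 uM small-molecule ligand, or with an oligonucleotide input. The apparent KD of each design is the median over its clusters, after curve-fitting of normalised cluster fluorescence.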

[1] = input ligand: microRNA oligo, concentration not stated
[2] = Eterna round: R95, input ligand: microRNA oligo, concentration not stated
[3] = Eterna round: R95, input ligand: FMN 200 uM
[4] = Eterna round: R95, input ligand: none

| Sequence | apparent KD of MS2 coat protein (input ligand: FMN 200 uM) | apparent KD of MS2 coat protein (input ligand: none) | apparent KD of MS2 coat protein [2] | also measured |
| --- | --- | --- | --- | --- |
| UUAUAGUGAGGAUAUAUAUGCAGUAAACCUUUAAAUUUAUAACUUGAGGAUCACCCAAGUAGAAGGCGCGUUAU [JR_Ex2_Sub054] (Eterna round: R97, puzzle: Exclusion 2) | 15.3 nM | 16.9 nM | – | – |
| ACAAGCUUUUUCAUAUCUAACAUGAGGAUCACCCAUGUUUAAGCAAUUAUGUUUGGGCUCUUUUGAGCUCGUCUUAU [JR_STOV1_Sub047] (Eterna round: R97, puzzle: Sensor, turn-off variant 1) | 13.8 nM | 12.3 nM | – | – |
| GAUUCGCGAGGAUAUACAGUCGAGUCCAUUACGUGUCUCGGACUUGAGGAUCACCCAAGUAGAAGGCGUCUCAU [salish99_ex2_r4_637] (Eterna round: R97, puzzle: Exclusion 2) | 55.8 nM | 57.8 nM | – | – |
| AAGAAGGCAGGAUAUACAAAAUAAAAGAAAAGAAAGAAAGAACAUGAGGAUCACCCAUGUAGAAGGGUCAAGAA [Sankhenre Sewadjtu] (Eterna round: R96, puzzle: Exclusion 2) | 52.2 nM | 60.7 nM | – | apparent KD of MS2 coat protein [1]: 46.3 nM |
| GGUCGGCGAGGAUAUACAUGAGGAUCACCCAUGUGAUAGAUUGCUUCGUGAGAAGUAUGUAGAAGGCGCUGACG [jl-ex3-4.04 jl mod] (Eterna round: R97, puzzle: Exclusion 3) | 320 nM | 38.7 nM | – | – |
| CGCCGAGUGUUAGGAUAUCACAAGCAUAAGCGGUGAGAAGGAACAUGAGGAUCACCCAUGUACUGUCCCAUCGGGACAGGUUUC [Ribeon] (Eterna round: R96, puzzle: Exclusion NG 1) | 170 nM | 70.8 nM | – | apparent KD of MS2 coat protein [1]: 54 nM |
| CUUCGUAUAGAGGAUAUAGGAUACUACGGUGUCCUAGAAGGCUGUACAUGAGGAUCACCCAUGUACUUCAGAUC [Exclusion 6 - B - 14:a] (puzzle: Exclusion 6) | – | – | 11.5 nM | – |
| ACAAGCUUAUUGCUCGGGUACAUGAGGAUCACCCAUGUUAGUGAUUAUAGAGAAUGUGUUGACGUGCGCUGCAGGUU [JR_SV3TOV1_Sub079] (puzzle: Sensor v3, turn-off variant 1) | – | – | 46 nM | apparent KD of MS2 coat protein [3]: 75.5 nM; apparent KD of MS2 coat protein [4]: 92.2 nM |
| GGUUGGCGAGGAUAUACAUGAGGAUCACCCAUGUGAGAGAGAAAAGUGAGGAAGAAAAGUAGAAGGCGCUGACG [salish99_ex3_r3_003] (puzzle: Exclusion 3) | – | – | 48 nM | apparent KD of MS2 coat protein [3]: 97.3 nM; apparent KD of MS2 coat protein [4]: 36.1 nM |
| UAUAUAUAGUAAGGAUAUGUAAUUAUUUUAUAAACAGAAGGUACUGACAUGAGGAUCACCCAUGUUUUAGUGUGGGCAUGUAGA [JMF's solution 5] (Eterna round: R96, puzzle: Exclusion NG 1) | – | – | – | apparent KD of MS2 coat protein [1]: 65.7 nM |
| AAGGACUGAGGAUAUGCGCGGGCAAGAUCCUCAAUCCCAAAACAUGAGGAUCACCCAUGUAGAAGGCAGAAAUA [Tereenrion] (puzzle: Exclusion 2) | – | – | 23.4 nM | – |
| UUGUUCCGUGUAGGAUAUUGGUCUCCCUCGGGCCGAGAAGGACAUGAGGAUCACCCAUGUAUGCUAUUAUCGCGCGUGGCGCAC [Design 93] (Eterna round: R96, puzzle: Exclusion NG 1) | 138 nM | 47.3 nM | – | apparent KD of MS2 coat protein [1]: 34.1 nM |
| AAUAAGCUAGGAUAUACAUGAGGAUCACCCAUGUGAGGGCACCGCCGGCGCGGGCCCGGUAGAAGGAGCAAUAA [Exc;s3-IV] (puzzle: Exclusion 3) | – | – | 16.1 nM | – |
| UGCAUGUGAGGAUAUGUGUACUGUUUUUUGUUUAGAUGUACACAGAAGGCACAUGAGGAUCACCCAUGUAGUAC [Ex4 - 3 - 33] (puzzle: Exclusion 4) | – | – | 46.1 nM | – |
| GGGUAGUGAGGAUAUACAUGAGGAUCACCCAUGUUUGCGACACUGGAGGCGUCUCUAUGUAGAAGGCGCGGCCG [EX3 B.16] (Eterna round: R97, puzzle: Exclusion 3) | 30.4 nM | 18.9 nM | – | – |
| AAUAACAGAGGAUAUACUAUUUUAUGUGUUUGUUGUUUUGAACAUGAGGAUCACCCAUGUAGAAGGCUGAAUGA [JMF 69] (puzzle: Exclusion 2) | – | – | 25.3 nM | – |
| GCACAGUGAGGAUAUACAUGAGGAUCACCCAUGUCCGCCGAUUAAGAGGUAUCAACGUGUAGAAGGUACCAGCG [Eternabot (Original) Solution 25] (Eterna round: R97, puzzle: Exclusion 3) | 17.2 nM | 18.5 nM | – | – |
| AAACCUGCCCAUGACCGCAAGCUUUUUGCUUGUCUUACCACAUGAGGAUCACCCAUGUGGCAUGGGCUCCUUAUAAA [Xemave] (puzzle: Sensor v3, turn-off variant 2) | – | – | 11.8 nM | apparent KD of MS2 coat protein [3]: 14.2 nM; apparent KD of MS2 coat protein [4]: 11.7 nM |

| Sequence | apparent KD of MS2 coat protein (input ligand: FMN 200 uM) | apparent KD of MS2 coat protein (input ligand: none) | apparent KD of MS2 coat protein [2] | also measured |
| --- | --- | --- | --- | --- |
| AGAAAGCAAGGAUAUACGAGGAGAAGGAGGAAAGUUAAAGGACAUGAGGAUCACCCAUGUAGAAGGUGCGAGAA [JR_Exclu2_Sub042] (puzzle: Exclusion 2) | – | – | 58.9 nM | apparent KD of MS2 coat protein [3]: 33.3 nM; apparent KD of MS2 coat protein [4]: 55.8 nM |
| CCGCAAAAGCAGGAUAUCGUAUCGGAUACGAUACGAGAAGGGUUUACAUGAGGAUCACCCAUGUUCCUUAGCGG [Fiskers Ex 6 - 32] (puzzle: Exclusion 6) | – | – | 26.8 nM | – |
| CCCACGCACCAAGGAUAUGUUCCGCACAUGAGGAUCACCCAUGUGGCCAGCGAUUCUGUGUGAGAACAGAAGGUGGUUAUGUUA [Eternabot solution 41] (Eterna round: R96, puzzle: Exclusion NG 2) | 468 nM | 219 nM | – | apparent KD of MS2 coat protein [1]: 315 nM |
| UUGUAUAUAGGAUAUGUAAGAAGAAACAUGAGGAUCACCCAUGUAGCCUCAAAUUUUAUGACAGAAGGAUAUGUUA [Default title] (Eterna round: R97, puzzle: Exclusion 5) | 36.2 nM | 56 nM | – | – |
| AAUAACAAGCUGAUCCUGCACAUGAGGAUCACCCAUGUGCUCGUCUUGUAAAGUACUAUCACGAAAGUGAUAGUACA (Eterna round: R97, puzzle: Sensor, turn-off variant 1) | 16.3 nM | 21.2 nM | – | – |
| AGCUGUGGCCGAGGAUAUCUGACUUCAAUAACCGAAAUAUAAUCGGACAUGAGGAUCACCCAUGUAGAGAAGGCGGUCUCAGCA [Eli eng2 - 083] (Eterna round: R96, puzzle: Exclusion NG 2) | – | – | – | apparent KD of MS2 coat protein [1]: 12.5 nM |
| ACCUCACAUGAGGAUCACCCAUGUCAGGAUAUCUAAUAUUGUAGCGUUCCCGACGCUAAGAGAAGGGACAUUAA [EX1 #31] (Eterna round: R97, puzzle: Exclusion 1) | 19.5 nM | 16.5 nM | – | – |
| GCACGGUAAGUGAGGAUAUACCUCUGGAUACAGAGGUAGAAGGCACAUGAGGAUCACCCAUGUCUCAGCCGUGC [Fiskers BMX 4 - 87] (puzzle: Brourd's mod of Exclusion 4) | – | – | 16.8 nM | – |
| CGACAGGGAGGAUAUACAUGAGGAUCACCCAUGUUCAAGCGUCCUUGAACUACCUCUGGUAGAAGGCCCUAAAG [jl-ex3-4.67 ViennaUCT mod] (Eterna round: R97, puzzle: Exclusion 3) | 44.6 nM | 123 nM | – | – |
| ACAUGAGGAUCACCCAUGUCCGGCUGGUCUGUCUCGGCUGUCGAGGAUAUAGCACGGUAUCCGCGCUAGAAGGCGGGAGCCGGC [Aenatbe mod 89] (Eterna round: R96, puzzle: Exclusion NG 3) | 99.5 nM | 47.4 nM | – | apparent KD of MS2 coat protein [1]: 34.6 nM |
| GCUUGGCGAGGAUAUACAUGAGGAUCACCCAUGUGAGAGAAAAAAGUGAGGAAGAAAAGUAGAAGGCGCUGAGG [Mat - Exclusion 3 - Mod of Salish D57] (puzzle: Exclusion 3) | – | – | 51.2 nM | apparent KD of MS2 coat protein [3]: 143 nM; apparent KD of MS2 coat protein [4]: 61.8 nM |
| GUUUGACAUGAGGAUCACCCAUGUAAGGAUAUACGAGUAGAUGAUAGAUAGAUAGUAUGUAGAAGGUACGUGUU [EX1 #61] (Eterna round: R97, puzzle: Exclusion 1) | 74.3 nM | 92.8 nM | – | – |
| ACGCGACAUGAGGAUCACCCAUGUGAGGAUAUGGCCUGUUUGUCGUGUGCUGGCUCUGUCAGAAGGCGCGUUGG [salish99_ex1_r4_042] (Eterna round: R97, puzzle: Exclusion 1) | 255 nM | 128 nM | – | – |
| ACAUGAGGAUCACCCAUGUACAGGGUUUAGUUUCAUCGUUUGAAGGAUAUACUCCGUUAGUUGUCGUAGAAGGUCACAUUUUGG [JR_ExcNG3_Sub006] (Eterna round: R96, puzzle: Exclusion NG 3) | 189 nM | 145 nM | – | apparent KD of MS2 coat protein [1]: 120 nM |
| AUUAAACAUGUAGGAUAUGCGUAGCAAAGCUAUGCAGAAGGACAUGAGGAUCACCCAUGUAAAAGCGUCUGAGUACAGAUGCAA [Mat - Exclusion NG 1 - Mod of JL - D88] (Eterna round: R96, puzzle: Exclusion NG 1) | 936 nM | 47.6 nM | – | apparent KD of MS2 coat protein [1]: 40.5 nM |
| ACGUACCUAGGAUAUACAUGGCCACAUGAUGCCAAGGAACAACUUGAGGAUCACCCAAGUAGAAGGAGGAAAAG [Riberace] (Eterna round: R97, puzzle: Exclusion 2) | 78.1 nM | 73.4 nM | – | – |
| UUUAUGUCAGGAUAUGAGUAGUAGAACAAUAGUACUACUACUCAGAAGGGACAUGAGGAUCACCCAUGUUUCUC [Fiskers Ex 4 Super stable 44 mod 24] (puzzle: Exclusion 4) | – | – | 22.6 nM | – |
